The values below come from publication PMC7984459.

The assay has as its target Epac1-camps-PDE4A1. In words: molecular brightness analysis.

By stoichiometry N is commonly meant the number of molecules, sites or subunits per partner or assembly. In the case of Epac1-camps-PDE4A1, the stoichiometry N came to 2.
